Laboratory results as given in patent publication JP2016135753A.

Target: SLA-1*0401/β2M (HEK293トランスフェクタント細胞表面) (pig) (UniProt Q07717)
Experiment: flow cytometry of hybridoma supernatant on SLA-1*0401/β2M HEK293 transfectants

平均蛍光強度(MFI): 3000
B1: モノクローナル抗体X2F6 (antibody, mouse IgG2a, kappa, V domains shown)
VH: QVQLQQSGAELVKPGASVKLSCKASGYTFTSYDINWVRQRPEQGLEWIGWIYPGDGSTKYNEKFKGKATLTTDKSSSTAYMQLSRLTSEDSAVYFCASPYYYGSSPFAYWGQGTLVTVSA
VL: DIQMTQSPASLSASVGETVTITCRASENIYSYLAWYQQKQGKSPQLLVYNAKTLAEGVPSRFSGSGSGTQFSLKINSLQPEDFGSYYCQHHYGTPRTFGGGTKLEIKR
